These results are taken from article doi:10.1101/2021.07.29.454247 (bioRxiv, 2021).

This experiment addresses endogenous TRPM2 of mouse brain (mouse (endogenous in brain), UniProt Q91YD4 1-1506). As to the kind of experiment: co-IP.

Chain of endogenous TRPM2 of mouse brain (Q91YD4 whole entry): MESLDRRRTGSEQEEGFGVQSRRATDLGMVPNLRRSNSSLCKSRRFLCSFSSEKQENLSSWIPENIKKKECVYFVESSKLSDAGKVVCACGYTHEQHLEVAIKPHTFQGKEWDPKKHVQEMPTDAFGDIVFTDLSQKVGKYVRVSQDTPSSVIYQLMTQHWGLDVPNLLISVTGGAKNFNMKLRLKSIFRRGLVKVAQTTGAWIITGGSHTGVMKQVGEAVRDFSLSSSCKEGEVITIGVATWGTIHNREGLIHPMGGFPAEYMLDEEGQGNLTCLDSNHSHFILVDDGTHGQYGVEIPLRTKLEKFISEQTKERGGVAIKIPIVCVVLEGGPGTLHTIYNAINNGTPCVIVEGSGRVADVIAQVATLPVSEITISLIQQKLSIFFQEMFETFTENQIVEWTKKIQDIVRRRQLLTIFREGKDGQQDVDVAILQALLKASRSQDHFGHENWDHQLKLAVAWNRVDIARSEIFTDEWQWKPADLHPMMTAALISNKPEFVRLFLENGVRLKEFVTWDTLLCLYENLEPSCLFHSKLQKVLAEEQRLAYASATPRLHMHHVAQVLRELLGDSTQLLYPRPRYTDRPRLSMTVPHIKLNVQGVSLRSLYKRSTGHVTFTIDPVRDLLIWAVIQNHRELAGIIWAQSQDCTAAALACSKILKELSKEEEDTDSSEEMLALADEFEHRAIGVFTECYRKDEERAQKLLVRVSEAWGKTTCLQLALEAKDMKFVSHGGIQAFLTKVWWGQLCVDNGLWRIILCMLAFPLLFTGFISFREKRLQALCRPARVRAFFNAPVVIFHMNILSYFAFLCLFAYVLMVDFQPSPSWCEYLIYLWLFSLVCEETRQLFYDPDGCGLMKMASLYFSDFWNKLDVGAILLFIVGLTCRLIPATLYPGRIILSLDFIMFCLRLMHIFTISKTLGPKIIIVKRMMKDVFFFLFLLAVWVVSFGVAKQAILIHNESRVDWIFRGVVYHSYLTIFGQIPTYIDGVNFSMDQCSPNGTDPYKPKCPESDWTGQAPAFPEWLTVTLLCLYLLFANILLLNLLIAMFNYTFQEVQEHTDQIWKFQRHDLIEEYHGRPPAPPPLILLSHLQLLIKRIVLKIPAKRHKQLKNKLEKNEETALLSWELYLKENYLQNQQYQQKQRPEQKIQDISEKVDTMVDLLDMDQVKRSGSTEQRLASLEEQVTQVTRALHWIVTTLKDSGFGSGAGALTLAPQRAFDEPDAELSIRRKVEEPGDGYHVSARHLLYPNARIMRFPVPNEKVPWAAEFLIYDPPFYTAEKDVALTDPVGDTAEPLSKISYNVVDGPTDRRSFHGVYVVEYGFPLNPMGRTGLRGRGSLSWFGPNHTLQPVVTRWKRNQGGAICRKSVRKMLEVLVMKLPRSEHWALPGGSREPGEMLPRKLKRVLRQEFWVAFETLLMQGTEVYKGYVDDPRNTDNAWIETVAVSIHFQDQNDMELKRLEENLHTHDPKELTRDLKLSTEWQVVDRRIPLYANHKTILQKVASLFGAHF

B1: endogenous PKCγ of mouse brain and neurons (enzyme)
chain: not shown
Regarding B1, the “fold of PKCγ pulled down by anti-TRPM2, MCAO against sham” value was around 1.5 fold.
